# Measurements published in patent US10351623B2, “Antagonists of IL-17 isoforms and their uses” (Orega Biotech, priority 2012, dated 2019).
# B1: IL-17B: recombinant human IL-17B, interleukin 17 isoform that binds IL-17RB (protein)
# chain: QPRSPKSKRKGQGRPGPLAPGPHQVPLDLVSRMKPYARMEEYERNIEEMVAQLRNSSELAQRKCEVNLQLWMSNKRSLSPWGYSINHDPSRIPVDLPEARCLCLGCVNPFTMQEDRSMVSVPVFSQVPVRRRLCPPPPRTGPCRQRAVMETIAVGCTCIF
# B2: IL-17C: recombinant human IL-17C, interleukin 17 isoform that binds IL-17RE (protein)
# chain: HHDPSLRGHPHSHGTPHCYSAEELPLGQAPPHLLARGAKWGQALPVALVSSLEAASHRGRHERPSATTQCPVLRPEEVLEADTHQRSISPWRYRVDTDEDRYPQKLAFAECLCRGCIDARTGRETAALNSVRLLQSLLVLRRRPCSRDGSGLPTPGAFAFHTEFIHVPVGCTCVLPRSV
# B3: IL-17D: recombinant human IL-17D, interleukin 17 isoform, receptor unknown (protein, UniProt Q8TAD2 16-202, looked up)
# Interleukin-17D: AGAPRAGRRPARPRGCADRPEELLEQLYGRLAAGVLSAFHHTLQLGPREQARNASCPAGGRPADRRFRPPTNLRSVSPWAYRISYDPARYPRYLPEAYCLCRGCLTGLFGEEDVRFRSAPVYMPTVVLRRTPACAGGRSVYTEAYVTIPVGCTCVPEPEKDADSINSSIDKQGAKLLLGPNDAPAGP
# B4: IL-17E: recombinant human IL-17E (=IL-25), interleukin 17 isoform (protein, UniProt Q9H293 33-177, looked up)
# Interleukin-25: YSHWPSCCPSKGQDTSEELLRWSTVPVPPLEPARPNRHPESCRASEDGPLNSRAISPWRYELDRDLNRLPQDLYHARCLCPHCVSLQTGSHMDPRGNSELLYHNQTVFYRRPCHGEKGTHKGYCLERRLYRVSLACVCVRPRVMG
# B5: IL-17F: recombinant human IL-17F, interleukin 17 isoform (protein, UniProt Q96PD4 31-163, looked up)
# Interleukin-17F: RKIPKVGHTFFQKPESCPPVPGGSMKLDIGIINENQRVSMSRNIESRSTSPWNYTVTWDPNRYPSEVVQAQCRNLGCINAQGKEDISMNSVPIQQETLVVRRKHQGCSVSFQLEKVLVTVGCTCVTPVIHHVQ
# Legend:
# [1] = tested on: MCF7 breast cancer cells; experiment: Cell proliferation assay ([3H]-TdR); type: cell-based, human; details: [3H]-TdR incorporation at 72 h, increasing doses of recombinant cytokine (0 to 100 ng/ml)
# Procedure: (§1) FIGS. 7A-7D: IL-17B increases the proliferation of breast cancer cells. T47D (A), MCF7 (B), MDA-MB436 (C) and MDA-MB468 (D) cells were cultured in adequate complete medium supplemented with increasing doses of recombinant human IL-17B as indicated. Cell proliferation was assessed at 72 h using tritiated thymidine ([3H]-TdR) incorporation protocol.
# (§2) FIGS. 10A-10F: IL-17C and IL-17D increase the proliferation of breast and ovarian cancer cells. OAW42 (ovarian, A), MCF7 (breast, B) and T47D (breast, C) cells were cultured in adequate complete medium supplemented with increasing doses of recombinant human IL-17C as indicated. Cell proliferation was assessed at 72 h using tritiated thymidine ([3H]-TdR) incorporation protocol. OAW42 (D), MCF7 (E) and T47D (F) cells were cultured in adequate complete medium supplemented with increasing doses of recombinant human IL-17D as indicated. Cell proliferation was assessed at 72 h using tritiated thymidine ([3H]-TdR) incorporation protocol.
# (§3) HCT116, HT29, and SKOV3 cell lines were cultured in McCoy5a medium (Life technologies) supplemented with 10% FCS, 2% glutamine and 1% antibiotics (Life technologies). MCF7, T47D, MDA-MB231 and BT20 cell lines were cultured in RPMI 1640 medium supplemented as described above. SKMEL5, LOVO, OAW42, MDA-MB435S, MDA-MB436, MDA-MB468 cell lines and normal human dermal fibroblasts (NHDF) were grown in DMEM/F12 medium (Life Technologies) supplemented as described above. MCF10A cell line was maintained in DMEM/F12 medium (Life Technologies) supplemented as described above and with 10 μg/ml insulin, 0.5 μg/ml hydrocortisone, 20 ng/ml EGF and 100 ng/ml cholera toxin. MDA-MB157 cell line was cultured in DMEM medium (Life technologies) supplemented with 10% FCS, 2% glutamine and 1% antibiotics. All cells were kept at 37° C. in 5% CO2 atmosphere incubator.
# (§4) 400 cells are seeded per well in 96 well plate (Corning) and kept overnight in adequate complete medium. Medium is then removed and replaced with adequate complete medium supplemented with 0 to 100 ng/ml of cytokines as indicated. Each condition is performed in triplicate. After 72 h of culture, cells were pulsed for 16 h with tritiated thymidine ([3H]-TdR) (0.5 μCi) and harvested. [3H]-TdR uptake was measured using PerkinElmer microβ2 2450 microplate counter.
# [2] = tested on: T47D breast cancer cells; experiment: Cell proliferation assay ([3H]-TdR); type: cell-based, human; details: [3H]-TdR incorporation at 72 h, increasing doses of recombinant cytokine (0 to 100 ng/ml)
# Procedure: as §1, §2, §3, §4
# [3] = tested on: MDA-MB436 breast cancer cells; experiment: Cell proliferation assay ([3H]-TdR); type: cell-based, human; details: [3H]-TdR incorporation at 72 h, increasing doses of recombinant cytokine (0 to 100 ng/ml)
# Procedure: as §1, §3
# (§5) 400 cells are seeded per well in 96 well plate (Corning) and kept overnight in adequate complete medium. […] [3H]-TdR uptake was measured using PerkinElmer microβ2 2450 microplate counter.
# [4] = tested on: MDA-MB468 breast cancer cells; experiment: Cell proliferation assay ([3H]-TdR); type: cell-based, human; details: [3H]-TdR incorporation at 72 h, increasing doses of recombinant cytokine (0 to 100 ng/ml)
# Procedure: as §1, §3, §5
# [5] = tested on: MDA-MB231 cells; experiment: Cell proliferation assay ([3H]-TdR); type: cell-based, human; details: MDA-MB231 cells that do not express IL-17RB; data not shown
# Procedure: as §3, §4
# [6] = tested on: MCF7 breast cancer cells; experiment: Transwell migration assay; type: cell-based, human; details: 100 ng/ml, 22 hours
# Procedure: (§6) FIGS. 8A-8C: IL-17B increases migration and invasion of breast and ovarian cancer cells. OAW42 (ovarian, A) and MCF7 (breast, B) cells were cultured in complete adequate complete medium alone (Ctl) or supplemented with 100 ng/ml of recombinant human IL-17B (IL-17B) as indicated. Cell migration was evaluated in transwell migration assay. (C) OAW42 cells were cultured for 14 days in adequate complete medium alone (Ctl) or supplemented with 100 ng/ml of recombinant human IL-17B (IL-17B) as indicated. Cell invasiveness was then evaluated in Matrigel Invasion Chambers.
# (§7) Migration Assay 20,000 cells were seeded on the upper chamber of trans well chambers in 1% FCS adequate medium alone (medium) or supplemented with recombinant human IL-17B (100 ng/ml) for 22 hours at 37° C. as indicated. The cells on the transwell were stained with 0.5% crystal violet prior imaging and enumeration. The number of cells migrated onto the transwell were counted (magnification ×4). The graph presents data after quantification in % of cell migration compared to non-treated cells. Results are the mean+/−SEM of two independent experiments, each performed in triplicate.
# [7] = tested on: OAW42 ovarian cancer cells; experiment: Transwell migration assay; type: cell-based, human; details: 100 ng/ml, 22 hours
# Procedure: as §6, §7
# [8] = tested on: OAW42 ovarian cancer cells; experiment: Matrigel invasion assay; type: cell-based, human; details: cultured 14 days with 100 ng/ml, Matrigel Invasion Chambers, 22 hours
# Procedure: as §6
# Cells were cultured in adequate complete medium supplemented with 100 ng/ml of recombinant cytokines for 2 days (MDA-MB231) or 14 days (OAW42). Matrigel Invasion Chambers (BD BioCoat™ BD Matrigel™ Invasion Chamber, 24-well Cell culture inserts) were then used to study the invasiveness of cancer cells. 2.10^4 cells are then added to the upper compartment of the chambers in 1% FCS adequate medium alone or supplemented with 100 ng/ml of recombinant cytokines as indicated. Medium supplemented with 10% FCS is added to the lower wells of the chambers. Plates are incubated for 22 hours at 37° C. […] Images of cells from three representative fields are captured digitally and the number of cells present on the transwell is counted.
# [9] = tested on: MDA-MB231 breast cancer cells; experiment: Matrigel invasion assay; type: cell-based, human; details: cultured 2 days with 100 ng/ml, Matrigel Invasion Chambers, 22 hours
# Procedure: FIGS. 11A-11B: IL-17C and IL-17D increase invasion of MDA-MB231 breast cancer cells. MDA-MB231 were cultured for 2 days in complete adequate medium alone (medium) or supplemented with 100 ng/ml of recombinant human IL-17B, IL-17C or IL-17D as indicated. Cell invasiveness was then evaluated in Matrigel Invasion Chambers (A, representative photomicrographs, B, quantification).
# Cells were cultured in adequate complete medium supplemented with 100 ng/ml of recombinant cytokines for 2 days (MDA-MB231) or 14 days (OAW42). Matrigel Invasion Chambers (BD BioCoat™ BD Matrigel™ Invasion Chamber, 24-well Cell culture inserts) were then used to study the invasiveness of cancer cells. 2.10^4 cells are then added to the upper compartment of the chambers in 1% FCS adequate medium alone or supplemented with 100 ng/ml of recombinant cytokines as indicated. Medium supplemented with 10% FCS is added to the lower wells of the chambers. Plates are incubated for 22 hours at 37° C. Transwell filters are then fixed and stained in Giemsa solution following which non-invading cells are removed from the upper surface of the transwell membrane using a cotton swab. Images of cells from three representative fields are captured digitally and the number of cells present on the transwell is counted.
# [10] = tested on: breast cancer cell lines that express IL-17RB; experiment: Cytotoxicity assay, docetaxel-induced cell death; type: cell-based; details: MCF7, T47D, MDA-MB436, BT20, MDA-MB468; cytokine 1 or 10 ng/ml; docetaxel 5, 10, 20 or 40 μg/ml for 7 h
# Procedure: (§8) FIGS. 9A-9F: IL-17B inhibits docetaxel and doxorubicin-induced cell death. MCF7 (A), T47D (B), MDA-MB436 (C), BT20 (D) and MDA-MB468 (E) breast cells were cultured for 48 h in adequate complete medium alone (medium) or treated with recombinant human IL-17B at 1 or 10 ng/ml as indicated. Cells were then culture in Fetal Calf Serum (FCS) free medium supplemented with corresponding concentration of cytokine for 24 h and then further supplemented with docetaxel at 5, 10, 20 or 40 μg/ml as indicated for 7 h. The percentage of cell death (=cytotoxicity) was determined using the Cytotoxicity Detection Kit (Roche). (F) MCF7 cells were cultured for 48 h in adequate complete medium alone (medium) or treated with recombinant human IL-17B at 1 or 10 ng/ml as indicated. […] The percentage of cell death (=cytotoxicity) was determined using the Cytotoxicity Detection Kit (Roche). […]
# (§9) The percentage of cell death (=cytotoxicity) was determined after 7 h of culture in the presence of docetaxel or doxorubicin using the Cytotoxicity Detection Kit (Roche) according to the manufacturer's instructions. […] Optical density was then read at 490 nm. The percentage of cytotoxicity is calculated as followed: %=100×(exp value−control medium value)/(Triton X100 treated cells value−control medium value)
# [11] = tested on: MCF7 breast cancer cells; experiment: Cytotoxicity assay, doxorubicin-induced cell death; type: cell-based; details: cytokine 1 or 10 ng/ml, doxorubicin 20 or 30 μM for 7 h
# Procedure: as §8, §9
# [12] = tested on: normal human dermal fibroblasts (NHDF); experiment: IL-6 ELISA; type: cell-based; details: 30 ng/ml recombinant cytokine, 24 h culture, ELISA of supernatant
# Procedure: FIG. 12: IL-17B, IL-17C, IL-17D, IL-17E and IL-17F increase the production of pro-inflammatory IL-6 by normal human dermal fibroblasts (NHDF). NHDF were cultured for 24 h in complete adequate complete medium alone (medium) or in the presence of 30 ng/ml of recombinant human IL-17B, IL-17C, IL-17D, IL-17E or IL-17F as indicated. All isoforms increased the production of pro-inflammatory IL-6 by NHDF.
# Normal human dermal fibroblasts (NHDF) were cultures in complete medium alone or supplemented with 30 ng/ml L of recombinant IL-17B, IL17C or IL17D as indicated. After […] of culture, supernatant are collected. IL-6 ELISA is performed with human IL-6 development kit (Peprotech) following manufacturer's instructions.
# [13] = tested on: OAW42 ovarian cancer cells; experiment: Cell proliferation assay ([3H]-TdR); type: cell-based, human; details: [3H]-TdR incorporation at 72 h, increasing doses of recombinant cytokine (0 to 100 ng/ml)
# Procedure: as §2
# HCT116, HT29, and SKOV3 cell lines were cultured in McCoy5a medium (Life technologies) supplemented with 10% FCS, 2% glutamine and 1% antibiotics (Life technologies). MCF7, T47D, MDA-MB231 and BT20 cell lines were cultured in RPMI 1640 medium supplemented as described above. SKMEL5, LOVO, OAW42, MDA-MB435S, MDA-MB436, MDA-MB468 cell lines and normal human dermal fibroblasts (NHDF) were grown in DMEM/F12 medium (Life Technologies) supplemented as described above. […]
# as §5
Molecule,cell proliferation [1],cell proliferation [2],cell proliferation [3],cell proliferation [4],cell proliferation [5],cell migration [6],cell migration [7],cell invasiveness [8],cell invasiveness [9],docetaxel-induced cell death (cytotoxicity) [10],doxorubicin-induced cell death (cytotoxicity) [11],production of pro-inflammatory IL-6 [12],cell proliferation [13]
B1,increased,increased,increased,increased,did not stimulate,increased,increased,increased,did not increase,decreased,protected,increase,–
B2,increased,increased,–,–,–,–,–,–,increased,–,–,increase,increased
B3,increased,–,–,–,–,–,–,–,increased,–,–,increase,increased
B4,–,–,–,–,–,–,–,–,–,–,–,increase,–
B5,–,–,–,–,–,–,–,–,–,–,–,increase,–
